Reference: the supplement of paper PMC9732359
± gives the uncertainty stated by the source.

assay: protein stability index of a GFP-peptide fusion (yeast GPS) (PSI 1-4); higher = more stable; sorted into four equal gates, so the index is relative within each strain; settings: doa10∆
How it was run: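 Tiled yeast protein peptides of 17 residues were each joined downstream of GFP, on plasmids that also express Cherry. The pooled library was maintained in yeast, and mid-log cultures in leucine-free medium were sorted into four equal gates on the GFP/Cherry ratio. Plasmids from every gate were amplified by PCR and sequenced on Illumina, with barcodes linking reads to strains. The protein stability index of a peptide is its gate-number-weighted read frequency summed over the gates.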

| Sequence | protein stability index |
| --- | --- |
| DPSMDPELAMALRLSME [RPN10] | 2.98 ± 0.062 |
| DQCKKQRRCLHCGALNG [RPO31] | 2.6 ± 0.14 |
| DQEIVIQQLHSVLNPFL [ISW2] | 2.3 ± 0.042 |
| DQITKMKDRLVEWNDQV [RPN9] | 3.35 ± 0.12 |
| DQLDSEAASITRKSLNN [ECM29] | 2.89 ± 0.1 |
| DQPQSSEAKRTKFSNPA [BRR2] | 3.1 ± 0.093 |
| DQTNHIESDSILNLLNI [ECM29] | 3.02 ± 0.064 |
| DRAQNSYQPMYQRPMQV [SSN3] | 1.55 ± 0.047 |
| DRGLSIKLNGSTLLCTD [SNU114] | 3.17 ± 0.14 |
| DRIIHTWRTQLAASEIG [ECM29] | 1.65 ± 0.056 |
| DRKIQGWLGALTMANLP [ARP7] | 2.8 ± 0.066 |
| DRRAQRVAEKRDALLKE [RPL19A] | 3.19 ± 0.12 |
| DRVQQDSEDEDSMKDTT [YML031W/NDC1] | 3.25 ± 0.14 |
| DSAKEWPQSKNCEYEDP [RPB3] | 3.6 ± 0.19 |
| DSEIEISSEKLLTLTNA [RPP1A] | 2.99 ± 0.063 |
| DSHKRIPDMSKNVELGW [SNU114] | 3.06 ± 0.17 |
| DSIDLAPNTLTNILISP [YML103C/NUP188] | 1.58 ± 0.11 |
| DSIPRDVAYLLKSESAT [YGL172W/NUP49] | 2.74 ± 0.092 |
| DSLKLNSKPVELKPVSL [YJL041W/NSP1] | 2.9 ± 0.082 |
| DSLSVPKVSAGDSGISP [SIR4] | 3.24 ± 0.12 |
| DSTIGNSKVDMKYDIFA [IRR1] | 2.82 ± 0.071 |
| DSTLILEQLAQHTTESD [RPB2] | 2.17 ± 0.05 |
| DTAGEESQQQDESLKDE [SWI3] | 3.36 ± 0.2 |
| DTDNECVAAWGVCNHAF [HRT1] | 3.25 ± 0.095 |
| DTDSKPSSQSQNDTPMF [YLR018C/POM34] | 2.89 ± 0.044 |
| DTIATSATPNAAAFSQQ [GAL11] | 2.6 ± 0.056 |

| Sequence | protein stability index |
| --- | --- |
| DTLDSKSNGSSDDDNIG [ISW2] | 3.26 ± 0.09 |
| DTRITPSKVSKIDSHVV [PRE6] | 2.76 ± 0.078 |
| DTTFSDFKEVEDFLHFI [SRB4] | 2.83 ± 0.06 |
| DVCKTRFNHLVTRLFFI [YML031W/NDC1] | 1.79 ± 0.046 |
| DVEVDDDFTNELKAELD [SEM1] | 3.25 ± 0.13 |
| DVKFPSNTTTQIQFTPL [SMC3] | 2.59 ± 0.16 |
| DVKKPFSFGTSQPNNTP [YLR335W/NUP2] | 2.61 ± 0.096 |
| DVLKSQANTEPENITKR [MCD1] | 3.06 ± 0.1 |
| DVNIIGKDRIAINVFPE [RPO31] | 2.75 ± 0.12 |
| DVNTNANANANATANAT [SNF11] | 3.13 ± 0.088 |
| DVQARRQFVSNVRSVIR [RPP1] | 2.02 ± 0.15 |
| DVVAKLEAKRKVSSAEY [RPL16A] | 1.69 ± 0.11 |
| DVVYALKRQGRTLYGFG [HHF1] | 2.77 ± 0.083 |
| DVYNRELDEHTTQIDLF [BRR2] | 3.07 ± 0.07 |
| DWIRFVSTKTNEYRLAF [RPL22A] | 2.03 ± 0.039 |
| DWVENELEALKLEAEEI [FAS2] | 3.29 ± 0.27 |
| DYITEAVFKIVLQPLLP [SNU114] | 1.44 ± 0.043 |
| DYLKNIIVENSGTSGDE [RPN2] | 3.43 ± 0.21 |
| DYNDVEVNSKKKNKRAL [BRR2] | 3.07 ± 0.098 |
| DYQVQGLNWLISLHENK [ISW2] | 1.53 ± 0.052 |
| DYVNKTNSHLPAGKQVE [FAS1] | 3.16 ± 0.098 |
| EAAKPSLSFGSGSAGAN [YJL041W/NSP1] | 2.83 ± 0.11 |
| EAEIECFDSTTGRDAGF [RRP40] | 3.15 ± 0.17 |
| EAESQLRAAQQQWGNDF [FAS2] | 3.12 ± 0.072 |
| EAKERYTDRDQDEVNKG [NNF1] | 3.26 ± 0.15 |
| EAPAGNIDTITDAMTES [MCD1] | 2.8 ± 0.079 |

| Sequence | protein stability index |
| --- | --- |
| EASNTPIEHQFNPYGDN [PRE7] | 3.15 ± 0.08 |
| EATAASHERFFLSQGLH [CSN12] | 1.43 ± 0.16 |
| EATLESKLKEEEAALLI [ESC2] | 2.86 ± 0.067 |
| EATLLTNSNNGSSNNNT [SNF5] | 3 ± 0.087 |
| EAVELVIGLDSEHDKKR [YML103C/NUP188] | 2.74 ± 0.2 |
| EDALYLGKRSILAAAHR [PRE2] | 3.42 ± 0.062 |
| EDFDVEHFSDEETYEEK [RPO26] | 3.64 ± 0.11 |
| EDGMIIDVNLNFARQLL [RRP40] | 3.15 ± 0.086 |
| EDKFLYGDGNGKGDNDN [SWI3] | 3.48 ± 0.24 |
| EDLFDDYPSTSLDIRHD [NUT1] | 1.81 ± 0.081 |
| EDLLHYIEEKHPTIYES [POP4] | 3.47 ± 0.078 |
| EDNGIVKALRNVPGVET [RPL4A] | 1.77 ± 0.16 |
| EDTPANDSSATRSWRPP [RPB8] | 2.44 ± 0.24 |
| EEAKEESDDDMGFGLFD [RPP1A] | 3.09 ± 0.053 |
| EEARRKHVSGKILGFVY [RPS22A] | 2.82 ± 0.2 |
| EEEEDTTTTANINEVKK [NUT1] | 3.24 ± 0.098 |
| EEEVTDQLEDLREHFKN [QCR6] | 3.14 ± 0.17 |
| EEISFSLSEGCDILVAT [PRP28] | 2.62 ± 0.1 |
| EELKNMFLYILKHLEEM [RRI2] | 2.25 ± 0.16 |
| EEQKSSDTSKPAFTFGA [YJL041W/NSP1] | 3.25 ± 0.07 |
| EERSNNLLTPQPTNFTT [MCD1] | 3.02 ± 0.061 |
| EETDDEDKQNIEINEDN [RRI2] | 3.52 ± 0.08 |
| EEVVSNDEGVWDLVDER [PRP8] | 3.56 ± 0.073 |
| EEYKKSLYAYCHSKLRG [GRR1] | 2.29 ± 0.074 |
